Test results reported in PMC10514999, “The PyPIF5-PymiR156a-PySPL9-PyMYB114/MYB10 module regulates light-induced anthocyanin biosynthesis in red pear”.

T1: PyPIF5 (Pyrus (red pear; cultivar of the cloned …, UniProt A0A5N5GDZ9 1-552)
T1 sequence: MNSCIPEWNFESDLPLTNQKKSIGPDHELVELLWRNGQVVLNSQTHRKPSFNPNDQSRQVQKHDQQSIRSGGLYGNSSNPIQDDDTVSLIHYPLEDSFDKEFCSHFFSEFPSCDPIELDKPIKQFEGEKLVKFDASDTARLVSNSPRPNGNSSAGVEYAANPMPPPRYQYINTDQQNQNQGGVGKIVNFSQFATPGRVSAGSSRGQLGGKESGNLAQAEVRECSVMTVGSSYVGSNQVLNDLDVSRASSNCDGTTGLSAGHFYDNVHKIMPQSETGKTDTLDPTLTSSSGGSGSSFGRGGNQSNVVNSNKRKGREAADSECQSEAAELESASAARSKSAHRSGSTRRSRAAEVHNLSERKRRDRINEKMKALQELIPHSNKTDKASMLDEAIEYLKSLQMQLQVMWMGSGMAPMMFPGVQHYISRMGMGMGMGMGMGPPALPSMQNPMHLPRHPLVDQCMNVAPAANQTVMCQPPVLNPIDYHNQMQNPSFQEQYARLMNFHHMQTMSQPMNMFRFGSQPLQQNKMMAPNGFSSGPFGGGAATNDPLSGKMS


What was measured:
PyPIF5 [1] = molecular target: T1, PyPIF5; experiment: competition; unlabeled competitor of N1; binding gradually reduced; EMSA: 500 ng PyPIF5-His, 20 nM biotin probe, 20 uL with 4 uL 5x EMSA/Gel-Shift buffer (Beyotime GS009), 20 min, room temperature (~25 C); salt and pH not stated; conditions: protein: recombinant; tags: His (pColdTF vector); chain copies: 2; as N1, 37/36 nt as printed
PyPIF5 [2] = molecular target: T1, PyPIF5; experiment: EMSA; mutant probe, G-box destroyed; Methods also describe it as a competitor; EMSA: 500 ng PyPIF5-His, 20 nM biotin probe, 20 uL with 4 uL 5x EMSA/Gel-Shift buffer (Beyotime GS009), 20 min, room temperature (~25 C); salt and pH not stated; conditions: protein: recombinant; tags: His (pColdTF vector); chain copies: 2; label: biotin; blunt

| Binder | binding result (PyPIF5 [1]) | binding result (PyPIF5 [2]) |
| --- | --- | --- |
| Cold-probe (dsDNA) DNA 1: TTGTAAAGAACACGTACGTTACACGTACGCTGAAACA DNA 2: TGTTTCAGCGTAGTGTAACGTACGTGTTCTTTACAA | binds | – |
| Bio-Mut-probe (dsDNA) DNA 1: TTGTAAAGAACAGATACGTTACACTACGCTGAAACA DNA 2: TGTTTCAGCGTAGTGTAACGTATCTGTTCTTTACAA | – | no binding |
